Here are results for two molecules from patent publication CN112741804A (SHANGHAI JUNSHI BIOSCIENCES CO LTD; JUNMENG BIOSCIENCES CO …, dated 2021).

For the assay, the target named is T1, human PD-L1 (programmed death-ligand 1), soluble protein (human, UniProt Q9NZQ7 19-238, limits assumed).
T1 construct: also called 人PD-L1; CD274
As to the kind of experiment: ELISA, PD-L1 coated on plate, HRP anti-human IgG detection.

T1 sequence (Q9NZQ7 19-238 limits assumed): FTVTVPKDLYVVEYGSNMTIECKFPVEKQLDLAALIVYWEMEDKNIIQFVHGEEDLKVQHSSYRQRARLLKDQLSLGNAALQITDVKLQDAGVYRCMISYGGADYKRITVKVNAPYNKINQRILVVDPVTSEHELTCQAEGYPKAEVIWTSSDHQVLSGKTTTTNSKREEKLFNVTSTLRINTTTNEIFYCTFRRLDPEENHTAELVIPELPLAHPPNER

B1: JS003 (humanized anti-PD-L1 antibody, clone 30) (antibody, human IgG4 S228P, kappa, V domains shown)
VH: QGQLQESGPSLVKPSQTLSLTCTVSGDSITRGYWNWIRKHPGKGLEYIGYISYTGSTYSNLSLKSRVTISRDTSKNQYYLKLSSVTAADTAVYYCATSTGWLDPVDYWGQGTLVTVSS
VL: DIVMTQSPDSLAVSLGERATINCKASQNVDTSVAWFQQKPGQPPKALIYSASFRYSGVPDRFSGSGSGTDFTLTISSLQAEDVAVYFCQQYYGYPFTFGQGTKLEIKR
notes: Full humanized antibody; Tested from formulation no; 30; also called 人源化抗体30; 抗体30
B1 came in with a half-maximal effective concentration (EC50) of 0.558 ng/mL.

B2: humanized anti-PD-L1 antibody 38 (clone 38) (antibody, V domains shown)
VH: QGQLQESGPSLVKPSQTLSLTCTVSGDSITRGYWNWIRKPPGKGLEYIGYISYTGSTYSNLSLKSRVTISRDTSKNQYYLKLSSVTAADTAVYYCATSTGWLDPVDYWGQGTLVTVSS
VL: DIQMTQSPSSLSASVGDRVTITCRASQNVDTSVAWFQQKPGKAPKALIYSASFRYSGVPSRFSGSGSGTDFTLTISSLQPEDFATYFCQQYYGYPFTFGQGTKLEIK
B2 returned an EC50 of 0.837 ng/mL.
